Literature values in PMC12583094, “A novel antioxidant peptide from black soybean [Glycine max (L.) Merr.] with verified MPO interaction and multi-scale antioxidant activity” (Frontiers in Nutrition, 2025).

Test system: MPO
Description: The RU values increased from approximately 0.79 RU to around 24.51 RU with increasing concentrations.

B1: ceruloplasmin: a physiological MPO inhibitor (protein, UniProt P00450 20-1065, looked up)
Ceruloplasmin: KEKHYYIGIIETTWDYASDHGEKKLISVDTEHSNIYLQNGPDRIGRLYKKALYLQYTDETFRTTIEKPVWLGFLGPIIKAETGDKVYVHLKNLASRPYTFHSHGITYYKEHEGAIYPDNTTDFQRADDKVYPGEQYTYMLLATEEQSPGEGDGNCVTRIYHSHIDAPKDIASGLIGPLIICKKDSLDKEKEKHIDREFVVMFSVVDENFSWYLEDNIKTYCSEPEKVDKDNEDFQESNRMYSVNGYTFGSLPGLSMCAEDRVKWYLFGMGNEVDVHAAFFHGQALTNKNYRIDTINLFPATLFDAYMVAQNPGEWMLSCQNLNHLKAGLQAFFQVQECNKSSSKDNIRGKHVRHYYIAAEEIIWNYAPSGIDIFTKENLTAPGSDSAVFFEQGTTRIGGSYKKLVYREYTDASFTNRKERGPEEEHLGILGPVIWAEVGDTIRVTFHNKGAYPLSIEPIGVRFNKNNEGTYYSPNYNPQSRSVPPSASHVAPTETFTYEWTVPKEVGPTNADPVCLAKMYYSAVEPTKDIFTGLIGPMKICKKGSLHANGRQKDVDKEFYLFPTVFDENESLLLEDNIRMFTTAPDQVDKEDEDFQESNKMHSMNGFMYGNQPGLTMCKGDSVVWYLFSAGNEADVHGIYFSGNTYLWRGERRDTANLFPQTSLTLHMWPDTEGTFNVECLTTDHYTGGMKQKYTVNQCRRQSEDSTFYLGERTYYIAAVEVEWDYSPQREWEKELHHLQEQNVSNAFLDKGEFYIGSKYKKVVYRQYTDSTFRVPVERKAEEEHLGILGPQLHADVGDKVKIIFKNMATRPYSIHAHGVQTESSTVTPTLPGETLTYVWKIPERSGAGTEDSACIPWAYYSTVDQVKDLYSGLIGPLIVCRRPYLKVFNPRRKLEFALLFLVFDENESWYLDDNIKTYSDHPEKVNKDDEEFIESNKMHAINGRMFGNLQGLTMHVGDEVNWYLMGMGNEIDLHTVHFHGHSFQYKHRGVYSSDVFDIFPGTYQTLEMFPRTPGIWLLHCHVTDHIHAGMETTYTVLQNEDTKSG
binding to MPO by SPR: clear dose-dependent binding effect
